Measurements reported in patent US20210380714A1.

Experiments:
[1] = target: native human MSLN expressed on the cell surface (N87 / NCI-N87 tumor cells) (human) (UniProt Q13421); assay: KinExA, native hu MSLN on cells
[2] = target: recombinant human soluble MSLN (rHuMSLN sol.) (human) (UniProt Q13421); assay: Biacore, soluble human MSLN
[3] = target: recombinant human soluble MSLN (rHuMSLN sol.) (human) (UniProt Q13421); assay: published value quoted in the Biacore column; the sheet does not name its source

recombinant human soluble MSLN (rHuMSLN sol.) (human), sequence (Q13421 296-606 limits assumed): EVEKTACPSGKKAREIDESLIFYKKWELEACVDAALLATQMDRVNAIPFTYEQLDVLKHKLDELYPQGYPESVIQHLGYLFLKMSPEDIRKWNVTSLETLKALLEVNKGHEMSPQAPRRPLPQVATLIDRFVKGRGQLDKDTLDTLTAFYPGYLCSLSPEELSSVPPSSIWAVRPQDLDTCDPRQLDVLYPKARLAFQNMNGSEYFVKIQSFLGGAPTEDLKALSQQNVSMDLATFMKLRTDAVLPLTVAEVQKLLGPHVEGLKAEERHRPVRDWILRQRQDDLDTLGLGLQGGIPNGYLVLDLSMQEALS
native human MSLN expressed on the cell surface (N87 / NCI-N87 tumor cells) (human), sequence (Q13421 296-606 limits assumed): as above

Kd [1]: 0.0022 nM
Kd [2]: 0.16 nM
Kd [3]: 1.5 nM
Substance: MORAb-009 (antibody)
